Reference: publication PMC11509957, “A New Activity Assay Method for Diamine Oxidase Based on Matrix-Assisted Laser Desorption/Ionization Time-of-Flight Mass Spectrometry” (Molecules, 2024)

How the values were obtained:
Assay in all cases: purified protein
Format in all cases: biochemical, Lathyrus oleraceus
[1] = substrate: NCCCCCN; details: 0.1 mol/L potassium phosphate pH 7.0, 30 °C, O2 co-substrate, excess substrate inhibition above 500 µmol/L
[2] = substrate: NCCCCCCN; details: 0.1 mol/L potassium phosphate pH 7.0, 30 °C, O2 co-substrate, excess substrate inhibition above 500 µmol/L
[3] = substrate: NCCC(O)CN; details: 0.1 mol/L potassium phosphate pH 7.0, 30 °C, O2 co-substrate
[4] = substrate: NCCCCN; details: 0.1 mol/L potassium phosphate pH 7.0, 30 °C, O2 co-substrate
[5] = substrate: N=C(N)NCCCCN; details: 0.1 mol/L potassium phosphate pH 7.0, 30 °C, O2 co-substrate
[6] = substrate: NCC1CCNCC1; details: 0.1 mol/L potassium phosphate pH 7.0, 30 °C, O2 co-substrate

B1: Pea seedling amine oxidase (PSAO); diamine oxidase (DAO) (Lathyrus oleraceus) (protein)
chain: VTPLHVQHPLDPLTKEEFLAVQTIVQNKYPISNNRLAFHYIGLDDPEKDHVLRYETHPTLVSIPRKIFVVAIINSQTHEILINLRIRSIVSDNIHNGYGFPILSVDEQSLAIKLPLKYPPFIDSVKKRGLNLSEIVCSSFTMGWFGEEKNVRTVRLDCFMKESTVNIYVRPITGITIVADLDLMKIVEYHDRDIEAVPTAENTEYQVSKQSPPFGPKQHSLTSHQPQGPGFQINGHSVSWANWKFHIGFDVRAGIVISLASIYDLEKHKSRRVLYKGYISELFVPYQDPTEEFYFKTFFDSGEFGFGLSTVSLIPNRDCPPHAQFIDTYVHSANGTPILLKNAICVFEQYGNIMWRHTENGIPNESIEESRTEVNLIVRTIVTVGNYDNVIDWEFKASGSIKPSIALSGILEIKGTNIKHKDEIKEDLHGKLVSANSIGIYHDHFYIYYLDFDIDGTHNSFEKTSLKTVRIKDGSSKRKSYWTTETQTAKTESDAKITIGLAPAELVVVNPNIKTAVGNEVGYRLIPAIPAHPLLTEDDYPQIRGAFTNYNVWVTAYNRTEKWAGGLYVDHSRGDDTLAVWTKQNREIVNKDIVMWHVVGIHHVPAQEDFPIMPLLSTSFELRPTNFFERNPVLKTLSPRDVAWPGCSN
notes: native enzyme purified to homogeneity from 7-day-old etiolated pea seedlings (roots and cotyledons removed); homodimer, 72 kDa subunit; Cu(II) and topaquinone
[1]
  Km: 148 ± 8 µM
  kcat: 60.9 s⁻¹
  kcat/Km: 411000 M⁻¹ s⁻¹
[2]
  Km: 95 ± 7 µM
  kcat: 13 s⁻¹
  kcat/Km: 137000 M⁻¹ s⁻¹
[3]
  Km: 589 ± 33 µM
  kcat: 4.9 s⁻¹
  kcat/Km: 8320 M⁻¹ s⁻¹
[4]
  Km: 289 ± 15 µM
  kcat: 47.4 s⁻¹
  kcat/Km: 164000 M⁻¹ s⁻¹
[5]
  Km: 446 ± 23 µM
  kcat: 8.4 s⁻¹
  kcat/Km: 18800 M⁻¹ s⁻¹
[6]
  Km: 618 ± 24 µM
  kcat: 4.2 s⁻¹
  kcat/Km: 6800 M⁻¹ s⁻¹
